B1: pHcgs6n: yeast expression plasmid with coding region of human cGS-PDE (SEQ ID NO: 45) (protein)
chain: MGQACGHSILCRSQQYPAARPAEPRGQQVFLKPDEPPPPPQPCADSLQDALLSLGSVIDISGLQRAVKEALSAVLPRVETVYTYLLDGESQLVCEDPPHELPQEGKVREAIISQKRLGCNGLGFSDLPGKPLARLVAPLAPDTQVLVMPLADKEAGAVAAVILVHCGQLSDNEEWSLQAVEKHTLVALRRVQVLQQRGPREAPRAVQNPPEGTAEDQKGGAAYTDRDRKILQLCGELYDLDASSLQLKVLQYLQQETRASRCCLLLVSEDNLQLSCKVIGDKVLGEEVSFPLTGCLGQVVEDKKSIQLKDLTSEDVQQLQSMLGCELQAMLCVPVISRATDQVVALACAFNKLEGDLFTDEDEHVIQHCFHYTSTVLTSTLAFQKEQKLKCECQALLQVAKNLFTHLDDVSVLLQEIITEARNLSNAEICSVFLLDQNELVAKVFDGGVVDDESYEIRIPADQGIAGHVATTGQILNIPDAYAHPLFYRGVDDSTGFRTRNILCFPIKNENQEVIGVAELVNKINGPWFSKFDEDLATAFSIYCGISIAHSLLYKKVNEAQYRSHLANEMMMYHMKVSDDEYTKLLHDGIQPVAAIDSNFASFTYTPRSLPEDDTSMAILSMLQDMNFINNYKIDCPTLARFCLMVKKGYRDPPYHNWMHAFSVSHFCYLLYKNLELTNYLEDIEIFALFISCMCHDLDHRGTNNSFQVASKSVLAALYSSEGSVMERHHFAQAIAILNTHGCNIFDHFSRKDYQRMLDLMRDIILATDLAHHLRIFKDLQKMAEVGYDRNNKQHHRLLLCLLMTSCDLSDQTKGWKTTRKIAELIYKEFFSQGDLEKAMGNRPMEMMDREKAYIPELQISFMEHIAMPIYKLLQDLFPKAAELYERVASNREHWTKVSHKFTIRGLPSNNSLDFLDEEYEVPDLDGTRAPINGCCSLDAE
B2: cGS-PDE cDNA: expression product of bovine adrenal cortex cGS-PDE cDNA (SEQ ID NO: 39) (protein)
chain: MRRQPAASRDLFAQEPVPPGSGDGALQDALLSLGSVIDVAGLQQAVKEALSAVLPKVETVYTYLLDGESRLVCEEPPHELPQEGKVREAVISRKRLGCNGLGPSDLPGKPLARLVAPLAPDTQVLVIPLVDKEAGAVAAVILVHCGQLSDNEEWSLQAVEKHTLVALKRVQALQQRESSVAPEATQNPPEEAAGDQKGGVAYTNQDRKILQLCGELYDLDASSLQLKVLQYLQQETQASRCCLLLVSEDNLQLSCKVIGDKVLEEEISFPLTTGRLGQVVEDKKSIQLKDLTSEDMQQLQSMLGCEVQAMLCVPVISRATDQVVALACAFNKLGGDLFTDQDEHVIQHCFHYTSTVLTSTLAFQKEQKLKCECQALLQVAKNLFTHLDDVSVLLQEIITEARNLSNAEICSVFLLDQNELVAKVFDGGVVEDESYEIRIPADQGIAGHVATTGQILNIPDAYAHPLFYRGVDDSTGFRTRNILCFPIKNENQEVIGVAELVNKINGPWFSKFDEDLATAFSIYCGISIAHSLLYKKVNEAQYRSHLANEMMMYHMKVSDDEYTKLLHDGIQPVAAIDSNFASFTYTPRSLPEDDTSMAILSMLQDMNFINNYKIDCPTLARFCLMVKKGYRDPPYHNWMHAFSVSHFCYLLYKNLELTNYLEDMEIFALFISCMCHDLDHRGTNNSFQVASKSVLAALYSSEGSVMERHHFAQAIAILNTHGCNIFDHFSRKDYQRMLDLMRDIILATDLAHHLRIFKDLQKMAEVGYDRTNKQHHSLLLCLLMTSCDLSDQTKGWKTTRKIAELIYKEFFSQGDLEKAMGNRPMEMMDREKAYIPELQISFMEHIAMPIYKLLQDLFPKAAELYERVASNREHWTKVSHKFTIRGLPSNNSLDFLDEEYEVPDLDGARAPINGCCSLDAE

Experiments:
[1] = tested on: yeast host strain YKS45; experiment: Yeast heat shock phenotype complementation, strain YKS45; type: cell-based, S. cerevisiae; settings: YKS45, 56° C. for 10, 20, 30 and 45 minutes
Method: The host cells used in these procedures were S. cerevisiae yeast strains 10DAB (ATCC accession No. 74049) and YKS45, both of which were pde^1- pde^2- resulting in a phenotype characterized by heat shock sensitivity, i.e., the inability of cells to survive exposure to elevated temperatures on the order of 55-56° C. In these complementation procedures, the inserted gene product was noted to conspicuously modify the heat shock phenotype.
In a like manner, plasmid pHcgs6n (Example VI) was transformed into yeast host strain YKS45 by lithium acetate transformation. Heat shock analysis was performed as above except that the plates were initially grown two days at 30° C. and the warmed plates were maintained at 56° C. for 10, 20, 30 and 45 minutes.

[2] = tested on: cyclic AMP and cyclic GMP hydrolysis; experiment: Phosphodiesterase assay of yeast cell extracts, second method of part D; type: biochemical, human; settings: extracts of YKS45
Method: YKS45 transformed with plasmid pHcgs6n were grown in SC-leu medium to 1-2×10^7 cells/ml. The cells were harvested by centrifugation and the cell pellets were frozen. A frozen cell pellet, typically containing 10^10 cells, was mixed with lysis buffer (25 mM Tris HCl pH 8, 5 mM EDTA, 5 mM EGTA, 1 mM o-phenathroline, 0.5 mM AEBSF, 0.01 mg/mL pepstatin, 0.01 mg/mL leupeptin, 0.01 mg/mL aprotinin, 0.1% 2-mercaptoethanol) to bring the total volume to 2.5 ml. The mixture was thawed on ice and then added to an equal volume of glass beads. The cells were disrupted by cycles of vortexing and chilling on ice, then additional lysis buffer was mixed with the disrupted cells to bring the total lysis buffer added to 5 ml. The suspension was centrifuged for 5 min. at 12,000× g. The supernatant was removed and either assayed immediately or frozen rapidly in a dry ice ethanol bath and stored at −70° C.
Phosphodiesterase activity was assayed by mixing an aliquot of cell extract in (40 mM Tris-Cl pH 8.0, 1.mM EGTA, 0.01 mg/mL BSA) containing 5 mM MgCl2 and radioactive substrate, incubating at 30° C. for up to 30 min. and terminating the reaction with stop buffer (0.1 M ethanolamine pH 9.0, 0.5M ammonium sulfate, 10 mM EDTA, 0.05% SDS final concentration). […] The radioactive product was measured by scintillation counting.

[3] = tested on: cGS-PDE activity; experiment: cGS-PDE activity of membrane and supernatant fractions of transfected COS-7 cells; type: biochemical, bovine; settings: most of the activity in supernatant fractions
Excerpt: Transient expression of the CGS-PDE cDNA in COS-7 cells was accomplished as in Example I. A 4.2 kb fragment of p3CGS-5 was isolated using HindIII and NotI and was inserted into plasmid pCDM8, which had been digested with the same enzymes. The character of products produced in COS-7 cells transformed with the p3CGS-5/pCDM8 construct is discussed in Example V, infra.
For transient expression in COS-7 cells, a 3.8 kb fragment of pBBCGSPDE-7 was isolated using HindIII and NotI and inserted into plasmid pCDM8 which had been cut with HindIII and NotI restriction endonucleases. The recombinant pBBCGSPDE-7/CDM8 construct was used to transiently transfect COS-7 cells. The properties of the pBBCGSPDE-7/CDM8 construct and the p3CGS-5/CDM8 construct prepared in Example IV products were subsequently compared. Membrane and supernatant fractions were prepared from extracts of transfected COS-7 cells and assayed for cGS-PDE activity. […] However, a 10-fold greater percentage of total cGS-PDE activity was detected in membranes from COS-7 cell extracts transfected with the pBBCGSPDE-7/CDM8 construct than in membranes prepared from p3CGS-5/CDM8-transfected COS-7 cells.

[4] = tested on: cAMP hydrolysis; experiment: cGS-PDE activity of PPD-S49 cells transfected with cGS-PDE cDNA; type: biochemical, bovine; settings: zinc-treated PPD S49 cells, pZEM 228 vector
Excerpt: A putative phosphodiesterase-deficient (PPD) strain of S49 cells [Bourne et al., J. Cell. Physiol., 85:611-620 (1975)] was transiently transfected with the cGS-PDE cDNA using the DEAE-dextran method. The cGS-PDE cDNA was ligated into the unique BamHI cloning site in a mammalian expression vector, designated pZEM 228, following a zinc-inducible metallothionine promoter and prior to an SV40 transcription termination sequence. The DNA was purified from large-scale plasmid preparations using Qiagen pack-500 columns as directed by the manufacturer. PPD-S49 cells were cultured in DMEM containing 10% heat-inactivated horse serum, 50 μg/ml penicillin G and 50 μg/ml streptomycin sulfate at 37° C. in a water-saturated 7% CO2 atmosphere. Prior to transfections, confluent 100 mm dishes of cells were replated at one-fifth of the original density and incubated for 24-36 h. In a typical transfection experiment, PPD-S49 cells (50-80% confluent) were washed with Tris-buffered-saline and approximately 2×10^7 cells were transfected with […] of DNA mixed with 400 μg of DEAE-dextran in one ml of TBS. […]
cGS PDE activity was determined by a previously described method using [^3H]cAMP as the substrate as in Martins et al., J. Biol. Chem., 257:1973-1979 (1982). […] The Bradford assay [Bradford, Anal. Biochem., 72:248-254 (1976)] was used to quantitate protein using BSA as the standard.

Row | Molecule | heat shock phenotype of transformed yeast [1] | hydrolysis of cyclic AMP and cyclic GMP by cell extracts [2] | cGS-PDE activity in COS-7 cell extracts [3] | cGMP-enhanced cAMP phosphodiesterase activity [4]
1 | B1 | resistant to thermal pulse | hydrolyzed both cyclic AMP and cyclic GMP |  | 
2 | B2 |  |  | produced cGS-PDE activities | expressed cGMP-enhanced CAMP phosphodiesterase activity

Source: patent US6642040B2, “Human cGMP-stimulated cyclic nucleotide phosphodiesterase” (The Board of Regents of the University of Washington, priority 1991, dated 2003)
